Test results as given in PMC4132743 (Nucleic Acids Research, 2014).

Tests used:
[1] = target: T1, DnaT (wt, full length) (Escherichia coli K12, UniProt P0A8J2 1-179); experiment: fluorescence polarization; apparent; Hill h=2.3±0.3; Buffer A: 20 mM Tris-HCl pH 7.5, 40 mM NaCl, 5% v/v glycerol, 20 C; FPA 200 nM 5'-FAM DNA, Hill fit; EMSA 30 min at 20 C, gels in 0.5x TBE at 4 C; details: protein: recombinant; tags: His-MBP removed by TEV; label: 5'-FAM
T1 sequence: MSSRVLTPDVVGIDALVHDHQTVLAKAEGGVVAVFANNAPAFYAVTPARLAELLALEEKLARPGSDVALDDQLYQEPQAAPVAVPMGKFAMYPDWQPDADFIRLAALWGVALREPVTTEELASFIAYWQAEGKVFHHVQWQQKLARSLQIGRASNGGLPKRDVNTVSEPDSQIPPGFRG

[2] = target: T1, DnaT (wt, full length); experiment: fluorescence polarization; apparent; Hill h=1.8±0.2; Buffer A: 20 mM Tris-HCl pH 7.5, 40 mM NaCl, 5% v/v glycerol, 20 C; FPA 200 nM 5'-FAM DNA, Hill fit; EMSA 30 min at 20 C, gels in 0.5x TBE at 4 C; details: protein: recombinant; tags: His-MBP removed by TEV; label: 5'-FAM
[3] = target: T1, DnaT (wt, full length); experiment: fluorescence polarization; apparent; Hill h=1.8±0.3; Buffer A: 20 mM Tris-HCl pH 7.5, 40 mM NaCl, 5% v/v glycerol, 20 C; FPA 200 nM 5'-FAM DNA, Hill fit; EMSA 30 min at 20 C, gels in 0.5x TBE at 4 C; details: protein: recombinant; tags: His-MBP removed by TEV; label: 5'-FAM
[4] = target: the molecule itself; experiment: SEC; Superdex 75 or Superdex 200 10/300 GL in buffer A (20 mM Tris-HCl pH 7.5, 40 mM NaCl, 5% glycerol), against molecular mass standards
[5] = target: the molecule itself; experiment: negative-staining electron microscopy; purified DnaT alone in buffer A (also after DNase I), 0.7% uranyl formate, FEI Tecnai F20
[6] = target: T1, DnaT (wt, full length); experiment: EMSA; 20 uM DNA; Buffer A: 20 mM Tris-HCl pH 7.5, 40 mM NaCl, 5% v/v glycerol, 20 C; FPA 200 nM 5'-FAM DNA, Hill fit; EMSA 30 min at 20 C, gels in 0.5x TBE at 4 C; details: protein: recombinant; tags: His-MBP removed by TEV
[7] = target: T1, DnaT (wt, full length); experiment: fluorescence polarization; apparent; Hill h=2.0±0.2; Buffer A: 20 mM Tris-HCl pH 7.5, 40 mM NaCl, 5% v/v glycerol, 20 C; FPA 200 nM 5'-FAM DNA, Hill fit; EMSA 30 min at 20 C, gels in 0.5x TBE at 4 C; details: protein: recombinant; tags: His-MBP removed by TEV; label: 5'-FAM
[8] = target: T1, DnaT (wt, full length); experiment: fluorescence polarization; apparent; Hill h=2.3±0.2; Buffer A: 20 mM Tris-HCl pH 7.5, 40 mM NaCl, 5% v/v glycerol, 20 C; FPA 200 nM 5'-FAM DNA, Hill fit; EMSA 30 min at 20 C, gels in 0.5x TBE at 4 C; details: protein: recombinant; tags: His-MBP removed by TEV; label: 5'-FAM
[9] = target: T1, DnaT (wt, full length); experiment: fluorescence polarization; apparent; Hill h=2.5±0.6; Buffer A: 20 mM Tris-HCl pH 7.5, 40 mM NaCl, 5% v/v glycerol, 20 C; FPA 200 nM 5'-FAM DNA, Hill fit; EMSA 30 min at 20 C, gels in 0.5x TBE at 4 C; details: protein: recombinant; tags: His-MBP removed by TEV; label: 5'-FAM
[10] = target: T1, DnaT (wt, full length); experiment: fluorescence polarization; apparent; Hill h=1.6±0.2; Buffer A: 20 mM Tris-HCl pH 7.5, 40 mM NaCl, 5% v/v glycerol, 20 C; FPA 200 nM 5'-FAM DNA, Hill fit; EMSA 30 min at 20 C, gels in 0.5x TBE at 4 C; details: protein: recombinant; tags: His-MBP removed by TEV; label: 5'-FAM
[11] = target: T1, DnaT (wt, full length); experiment: fluorescence polarization; apparent; Hill h=3.6±0.3; Buffer A: 20 mM Tris-HCl pH 7.5, 40 mM NaCl, 5% v/v glycerol, 20 C; FPA 200 nM 5'-FAM DNA, Hill fit; EMSA 30 min at 20 C, gels in 0.5x TBE at 4 C; details: protein: recombinant; tags: His-MBP removed by TEV; label: 5'-FAM
[12] = target: T2, DnaT84-179 (Escherichia coli K12, UniProt P0A8J2 84-179); experiment: fluorescence polarization; apparent; Hill h=2.7±0.2; Buffer A: 20 mM Tris-HCl pH 7.5, 40 mM NaCl, 5% v/v glycerol, 20 C; FPA 200 nM 5'-FAM DNA, Hill fit; EMSA 30 min at 20 C, gels in 0.5x TBE at 4 C; details: protein: recombinant; tags: His-MBP removed by TEV; chain copies: 2; label: 5'-FAM
T2 sequence: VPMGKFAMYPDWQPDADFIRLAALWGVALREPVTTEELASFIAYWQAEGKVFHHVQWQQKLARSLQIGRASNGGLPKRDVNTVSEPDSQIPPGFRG

[13] = target: T3, DnaT84-153 (Escherichia coli K12, UniProt P0A8J2 84-153); experiment: fluorescence polarization; apparent; Hill h=2.1±0.2; Buffer A: 20 mM Tris-HCl pH 7.5, 40 mM NaCl, 5% v/v glycerol, 20 C; FPA 200 nM 5'-FAM DNA, Hill fit; EMSA 30 min at 20 C, gels in 0.5x TBE at 4 C; details: protein: recombinant; tags: His-MBP removed by TEV; label: 5'-FAM
T3 sequence: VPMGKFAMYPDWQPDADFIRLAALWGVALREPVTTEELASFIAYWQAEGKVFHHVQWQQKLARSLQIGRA

CACACACACACACACACACACACACACACA (ssDNA) [5F-d(CA)15]
Kd [1]: 31.5 ± 3.6 µM

AAAAAAAAAAAAAAAAAAAAAAAAAAAAAA (ssDNA) [5F-dA30]
Kd [2]: 39.2 ± 3.85 µM

TGGTGGTGGTGGTGGTGGTGGTGGTGGTGG (ssDNA) [5F-d(TGG)10]
Kd [3]: 2.76 ± 0.28 µM

B1: DnaT F135A (natural protein, Escherichia coli (strain K12), UniProt P0A8J2 1-179, looked up)
chain: MSSRVLTPDVVGIDALVHDHQTVLAKAEGGVVAVFANNAPAFYAVTPARLAELLALEEKLARPGSDVALDDQLYQEPQAAPVAVPMGKFAMYPDWQPDADFIRLAALWGVALREPVTTEELASFIAYWQAEGKVAHHVQWQQKLARSLQIGRASNGGLPKRDVNTVSEPDSQIPPGFRG
notes: E. coli K12 DnaT, made from the wt-DnaT vector by site-directed mutagenesis; source: E. coli BL21 (DE3), purified as the wild type; not shown: His, N-terminal, cleaved; MBP, N-terminal, cleaved
binding result [4]: binds

B2: DnaT K143A (natural protein, Escherichia coli (strain K12), UniProt P0A8J2 1-179, looked up)
chain: MSSRVLTPDVVGIDALVHDHQTVLAKAEGGVVAVFANNAPAFYAVTPARLAELLALEEKLARPGSDVALDDQLYQEPQAAPVAVPMGKFAMYPDWQPDADFIRLAALWGVALREPVTTEELASFIAYWQAEGKVFHHVQWQQALARSLQIGRASNGGLPKRDVNTVSEPDSQIPPGFRG
notes: as for B1
binding result [4]: binds

B3: DnaT Y127A (natural protein, Escherichia coli (strain K12), UniProt P0A8J2 1-179, looked up)
chain: MSSRVLTPDVVGIDALVHDHQTVLAKAEGGVVAVFANNAPAFYAVTPARLAELLALEEKLARPGSDVALDDQLYQEPQAAPVAVPMGKFAMYPDWQPDADFIRLAALWGVALREPVTTEELASFIAAWQAEGKVFHHVQWQQKLARSLQIGRASNGGLPKRDVNTVSEPDSQIPPGFRG
notes: as for B1
binding result [4]: binds

B4: DnaT (full-length, wild type) (natural protein, Escherichia coli (strain K12), UniProt P0A8J2 1-179, looked up)
chain: MSSRVLTPDVVGIDALVHDHQTVLAKAEGGVVAVFANNAPAFYAVTPARLAELLALEEKLARPGSDVALDDQLYQEPQAAPVAVPMGKFAMYPDWQPDADFIRLAALWGVALREPVTTEELASFIAYWQAEGKVFHHVQWQQKLARSLQIGRASNGGLPKRDVNTVSEPDSQIPPGFRG
notes: E. coli K12 DnaT, amplified from genomic DNA; also called wt-DnaT; DnaT-FL; source: E. coli BL21 (DE3), purified (Ni-chelating resin, TEV digestion, HisTrap HP, HiTrap DEAE FF, Superdex 200); not shown: His, N-terminal, cleaved; MBP, N-terminal, cleaved
binding result [5]: binds

B5: DnaT R146A (natural protein, Escherichia coli (strain K12), UniProt P0A8J2 1-179, looked up)
chain: MSSRVLTPDVVGIDALVHDHQTVLAKAEGGVVAVFANNAPAFYAVTPARLAELLALEEKLARPGSDVALDDQLYQEPQAAPVAVPMGKFAMYPDWQPDADFIRLAALWGVALREPVTTEELASFIAYWQAEGKVFHHVQWQQKLAASLQIGRASNGGLPKRDVNTVSEPDSQIPPGFRG
notes: as for B1
binding result [4]: binds

B6: DnaT W128A (natural protein, Escherichia coli (strain K12), UniProt P0A8J2 1-179, looked up)
chain: MSSRVLTPDVVGIDALVHDHQTVLAKAEGGVVAVFANNAPAFYAVTPARLAELLALEEKLARPGSDVALDDQLYQEPQAAPVAVPMGKFAMYPDWQPDADFIRLAALWGVALREPVTTEELASFIAYAQAEGKVFHHVQWQQKLARSLQIGRASNGGLPKRDVNTVSEPDSQIPPGFRG
notes: as for B1
binding result [4]: binds

B7: DnaT Y127A/W128A double mutant (natural protein, Escherichia coli (strain K12), UniProt P0A8J2 1-179, looked up)
chain: MSSRVLTPDVVGIDALVHDHQTVLAKAEGGVVAVFANNAPAFYAVTPARLAELLALEEKLARPGSDVALDDQLYQEPQAAPVAVPMGKFAMYPDWQPDADFIRLAALWGVALREPVTTEELASFIAAAQAEGKVFHHVQWQQKLARSLQIGRASNGGLPKRDVNTVSEPDSQIPPGFRG
notes: as for B1
binding result [4]: binds

B8: DnaT K133A (natural protein, Escherichia coli (strain K12), UniProt P0A8J2 1-179, looked up)
chain: MSSRVLTPDVVGIDALVHDHQTVLAKAEGGVVAVFANNAPAFYAVTPARLAELLALEEKLARPGSDVALDDQLYQEPQAAPVAVPMGKFAMYPDWQPDADFIRLAALWGVALREPVTTEELASFIAYWQAEGAVFHHVQWQQKLARSLQIGRASNGGLPKRDVNTVSEPDSQIPPGFRG
notes: as for B1
binding result [4]: binds

TTTTTTTTTT (ssDNA) [dT10]
binding result [6]: binds

B9: DnaT^84–179 (N-terminal-truncated DnaT) (domain or fragment, Escherichia coli (strain K12), UniProt P0A8J2 84-179, looked up)
chain: VPMGKFAMYPDWQPDADFIRLAALWGVALREPVTTEELASFIAYWQAEGKVFHHVQWQQKLARSLQIGRASNGGLPKRDVNTVSEPDSQIPPGFRG
notes: Dimer in solution by size-exclusion chromatography (see the N row); source: E. coli BL21 (DE3), purified (Ni-chelating resin, TEV digestion, HisTrap HP, HiTrap DEAE FF, Superdex 200); not shown: His, N-terminal, cleaved; MBP, N-terminal, cleaved
stoichiometry N [4]: 2

TTTTTTTTTTTTTTT (ssDNA) [5F-dT15]
Kd [7]: 16.2 ± 1.63 µM

TGGGTGGGTGGGTGGGTGGGTGGGTGGG (ssDNA) [5F-d(TGGG)7]
Kd [8]: 0.597 ± 0.02 µM

AAAAAAAAAAAAAAA (ssDNA) [5F-dA15]
Kd [9]: 46.7 ± 6.87 µM

TGTGTGTGTGTGTGTGTGTGTGTGTGTGTG (ssDNA) [5F-d(TG)15]
Kd [10]: 1.3 ± 0.11 µM

B10: DnaT^84–153 (N- and C-terminal-truncated DnaT, recombinant fragment) (domain or fragment, Escherichia coli (strain K12), UniProt P0A8J2 84-153, looked up)
chain: VPMGKFAMYPDWQPDADFIRLAALWGVALREPVTTEELASFIAYWQAEGKVFHHVQWQQKLARSLQIGRA
notes: as for B9
stoichiometry N [4]: 2

TTTTTTTTTTTTTTTTTTTTTTTTTTTTTT (ssDNA) [5F-dT30]
Kd [11]: 12.9 ± 0.57 µM
Kd [12]: 9.87 ± 0.32 µM
Kd [13]: 27.1 ± 2.3 µM
